{"source": "paper PMC7255924", "molecular_target": "P1 adhesin (AgI/II, SpaP, PAc) A3VP1 polypeptide (UniProt P23504)", "assay": "ITC", "settings": "pH 5; 25°C; 100 mM NaCl; pH 5: 10 mM MES; pH 6: 50 mM sodium phosphate"}
{"substance": "P1 adhesin (AgI/II, SpaP, PAc) C3 domain", "values": [{"measurement": "KD", "value": "35.2 ± 7.0", "unit": "µM"}]}
